From a protein production outcome set (Wang et al. 2014) come the findings set out here.

A short description of this data set: label from the status in PepcDB records.
Consider “MAGPTLLKESGPREVFCGLTSIVWLHRRMPDAFFLVVGSRTCAHLIQSAAGVMIFAEPRFGTAILSERDLAGLADAHEELDRVARELLQRRPEIRTLFLVGSCPSEVIKLDLARAAERLNDELQGRVRVVNYSGSGIETTFTQGEDGALAALVPLLPSSAERQLLLVGTLADAVEDRLIHLFGRLGIDRVRSLPPRQSTALPPVGPGTTVLLTQPFLTDTARLLRNRGATVLTAPFPLGAEGSRRWMEAAAQAFEVAPSHVATVLDPLMERARIALEPHREVLAGKRIFLLPESQLELPLARFLQRECGMELVEVGTPYLNREQMAEELALLPEGTPVMEGQHVELQLDRVRDSAPDLVVCGMGLANPLEAEGIATKWSIELVFSPIHGIDQAGDLAELFSRPLRRRQLIHPGLHPTQPDQPVHA”, for which the protein production result is on record as “failed”.
The value for “MAGRVHPRQLAFSLPHAESLSRDNFLEGPANAAGLALIDGWPEWPNRIMWLAGPEGSGKSHLAAIWAEEAGARSTTANALSAAGVPGALATGALVVEDLKAKDFDERALFHLMNLAREDGAYVLFTGRDVPAALDIELNDLRSRLRAVPVVMLLPPDDQLFRGLIVKFCADRQLTVDESVVSYLATRLERSSAAARQAVELLDSEALRLGRPVTRALAAELLRDALEHHHHHH” was “not failed”.
The value for “MAGSGVPSHRSMVIKVSVFAVVMLLVAAGLVVVFGDFRFGPTTVYHATFTDASRLKAGQKVRIAGVPVGSVKAVKLNPDHSIDVAFAIDRSYTLYSSTRAVIRYENLVGDRFLEITSGPGELRKLPPGGTINVAHTQPALDLDALLGGLRPVLKGFDADKINTITSAVIELLQGQGGPLANVLADTGAFSAALGARDQLIGEVITNLNAVLATVDAKSAQFSASVDQLQQLVSGLAKNRDPIAGAISPLASTTTDLTELLRNSRRPLQGILENARPLATELDNRKAEVNNDIEQLGEDYLRLSALGSYGAFFNIYFCSVTIKINGPAGSDILLPIGGQPDPSKGRCAFAK” was “failed”.
The value for “MAGTNSERELLTEGPAIILAFPQLGENIGMVARAMANFGLSELRLVSPRDGWPSEKARSAASRADHVIDGAKLYETLEEALADLNFVYATTARDRDGFKPVRSPIVAARELRHRFKEGEKVGIIFGRERTGLTNAEVALADEIVTFPVNPAFASLNLAQAVLLMSYEWLKTGMTSEDETSFQASQQRPATKEQLHGLCEHLEEA” was “failed”; that for “MAGVITGFAIILSVIGVGFLLAKLGVINDDKQRLVLNRIAFYAATPALLFNVVARSDPSALISPVIVVTFVATIVTAAVYCVISAIFFKKDIATTATGAAASAYVNSNNIGLPVSIYVLGTGAYVAPILVMQMVIFAPMILAALTSGDVKGSRGQKIWAAVKGSLLSPIVLASIAGLIVCLLEIQLPAAVMEPTIILGGASIPLILMSFGASLPSTNVLASKADRPSVLTATAIKIVGMPAITWLIAKAFGLEGDYLYAAVILAALPAAQNVYNYAATYRKGEIVARDTVFLTTFLALLGMLGIAALFGR” was “not failed”; that for “MAHFSARLKLLSSNDGLSFGVDSRDQFRQSLYMAGGGSPLVPIRMSRLKFCARIFSSYSFPYKRKKIRDLDNTEKNLDIDEDNDEWDFDGDDDGLETDDHLSCFRGLVLDISYRPVNVVCWKRAICLEYMDKADVLEYYDQTVSSPTGSFYIPAVLRVPHLLQVVKRRRVKNSLSRKNILLRDDYTCQYCSSRENLTIDHVMPVSRGGEWTWQNLVAACSRCNSRKGQKTADEAHMKLLKVPKEPKDYDIVAIPLTNAAIRMLRSNKGMPEEWRQYLAKPLSET” was “failed”.
As to “MAHNYLLEIGLEEIPAHVVTPSIKQLVQKVTAFLKENRLTYDSIDHFSTPRRLAIRINGLGDQQPDIEEDAKGPARKIAQDADGNWTKAAIGFTRGQGLTVDDITFKTIKGTDYVYVHKLIKGKMTKEILTGLKEVVESINFPTMMKWANFDFKYVRPIRWLVSILDEEVLPFSILDVTAGRRTEGHRFLGEAVELANAEEYEAKLHDQFVIVDADERKQLISNQIKAIAESNRWNVTPNPGLLEEVNNLVEWPTAFNGGFDEKYLAIPEEVLITSMRDHQRFFFVRDQAGKLLPNFISVRNGNEEFIENVVRGNEKVLTARLEDAAFFYEEDQKHDINYYVDRLKKVSFHDKIGSMYEKLQRVNSIAKVIGNTLNLNQTELDDIDRATMIYKFDLVTGMVGEFSELQGVMGEKYAQLNGENQAVAQAIREHYMPNSAEGDLPESVTGAVVALADKFDNIFSFFSAGMIPSGSNDPYALRRHAYGIVRILNSRDWQLDLNQFKSQVKTELAENGTAFGVDVDQNFDQVLNFFNDRIKQLLDHQKISHDIVETVLTGNNHDVTEIIEAAQVLADAKASSTFKDDIEALTRVQRIATKNEESGELNVDPQLFNNASEGELFDQIIKIEAANNLTMSQLFAKLCELTPAISKYFDATMVMDKDENIKRNRLNMMSRLANLILKIGDLTNVLVK”, the protein production result was “failed”.
In the case of “MAIAHTYRRYLDYLRQDRGLAKNSLLVYGPFIRDFLDSHSAGDGSLLPDAFDAVTIRNHLLARSKGRSAEYTRLMAVALRSFCHFLFLRGDTARDLAGSVLEHHHHHH” it was “failed”; in that of “MAIARHRSFSRAAIELGVSASALSHALKGLETRLGVRLLNRTTKSVTPTAAGEELVQSVLQPFDTIEGALESLNRYRNTPTGRIRINAAVEAANLLLAPVMPAFMDRYPDIEIDIVASNRMVDVTDAGFDAGIRYGGTVPEDMVARRLSADIRWVIAASPDYLERYGTPEHPDDLLHHRCISNRLGDDRVYRWELARDGETYQMTVPGSVTVNHAETGLVAVLGGAGLMYFPEPLVAPYVKDGRLRLVLTEWSPLEEGFHIYYSSRRQLPTGLRLLIEFIQEARPLGL”, “failed”; in that of “MAICESGALPSHVGALSYSGGAASSFFGRRNADGLNDKWLALRDAFRAAGGDLLAIEDARSAALDFVIHVNAHRLRHDVPAFVILAESEFIHPPNVDWRMLQQYKGIFTWMPDLVRRGIGTEICLAHPLGAGVVDGYQERPQLLVMIASNKALPVWRPAVDLYRERVRAIRWFEKHAPQAFALYGHDWDKSPRLPTPLGGIVHGVEFVLPWRLQWFPSWKGVIPSKREVLRHARFSLCYENVRGLRGYITEKIFDAFCAGNVPVYWGAEDITDYIPADCFIDRRAFGDYADLYRYLTSMPETRYIQYQQAICDFLVSPAAKRFSSEIFATTIVGKVLDTLGRRDELEHHHHHH”, “failed”.
Consider “MAIDPNSIGAVTEPMLFEWTDRDTLLYAIGVGAGTGDLAFTTENSHGIDQQVLPTYAVICCPAFGAAAKVGTFNPAALLHGSQGIRLHAPLPAAGKLSVVTEVADIQDKGEGKNAIVVLRGRGCDPESGSLVAETLTTLVLRGQGGFGGARGERPAAPEFPDRHPDARIDMPTREDQALIYRLSGDRNPLHSDPWFATQLAGFPKPILHGLCTYGVAGRALVAELGGGVAANITSIAARFTKPVFPGETLSTVIWRTEPGRAVFRTEVAGSDGAEARVVLDDGAVEYVAG”, for which the protein production result is reported as “not failed”.
The value for “MAIDSKPHDDLQLFKTNLHPCGYWPDRWASDLVMDPNDPRLGAIYPQTLAWGFRRSGNLLYRPHCEHCNACVPVRVNVNAFVPNRSQRRCLARNATLVTRIVPAERNAEQLSLYRRYLHQRHPDGGMDGHGAIEFDQFLIGPWGYGRFMEIREPATNGTPGQLLAVAVTDLTHQALSAVYTFYEPNAAARGLGTLAILHQIHWAQREQRPYLYLGYWIKDHFKMDYKRRFQKLEIYDGYRWRPFSTTYPTTHTLLEHHHHHH” was “not failed”; that for “MAIDTNSSTPLVSVITPTYNRPNYLQAALTSAVRQTYSHIEIIVCDNCSPQNPQAIVDSFDDSRIRFFRNSSNMGMFANTIKAFKMARGKYVACLLDDDLWEEDFLEKLVPPLEANPNLALAFCDHYIMDANGNIDDALTEEYSRSYKRVDLPEGIYQPFYRMGLVDRSVSTATAAVMRRDAIAWDAIPAEVGGSWDIYLNYLCCRSGLGAYFYPEKLTRYRVHEQTETMLSGKRDAQAKIRKAQADMFCYEQFMADERLQELKPYFQQQWAHVSTTLGIGFMRSKQMKLARSYFWRSLKQSLKLRTMAGLMLSFTPPTIASRF” was “failed”; that for “MAIETAILEKIKQYQTIIIHRHQRPDPDCIGSQLALRAILRASFPEKTVVAVGKHYPGFDWMGQADQEVSDDTYHQALVIVVDTANQPRVDDERWQTGAAVIKIDHHPNDDAFGDLQWVLPQASSTSEIIYDWFEANHADLTMPDDAARLLYAGIVGDTGRFMYPATSANTFAVAGKLLAYDFSMTAVNQAEDEISPEMARLSAYAYQNLEILPSGAAYLKLTDEIVESFGLAASDSTSAIVPLPGKITSVVAWAIFVESKDKTFRVRLRSKGPSINELAKRHGGGGHALASGAAAKDQAEIDQVIHELDQLVADTKGENELEHHHHHH” was “not failed”.
The value for “MAIGERIHFFRLLRGMTQKYLGTAVGFPERSADVRLAQYETGSRKPKADLTAALAQVLDVSPQALDVPDIDSQIGLMHTLFTLEDVYGLTISEADGEVCLKVNKDKGKKAYELLQMLYVWKEQADKLSAGEISKDDYDRWRYYYPKYDTTQLWAKVPSQQLSDTLVEAFQDKLKKDELEHHHHHH” was “failed”; that for “MAIGSLSSLGLGSKVLNYDVIDKLKDADEKALIAPLDKKMEQNVEKQKALVEIKTLLSALKGPVKTLSDYSTYISRKSNVTGDALSASVGVGVPIQDIKVDVQNLAQGDI” was “failed”.
In the case of “MAIKAGKVLRTATAAARKFQQKQFSASSSAFPEPPPVSPSSGVGAFLGIPKIIRSESDLLVSKYIRIAQGRLTKKGDYTEEKLKKMLSGEDRVGIGETMKLLEGRNTGLVSSKKPNSGRSKK” it was “failed”; in that of “MAIKGPRKHLKRLAAPANWQLPRKVKTFTVRPSPGPHSMDKSLPLLLVVRDVLKYADNAREAKKIIQTGKILIDGLKRKEYKHPAGLMDVLSIPEMDETYLVLFDESGRISLKKTDKTDVKLCKIVNKTVVKGGNIQLNLHDGRNQIVKVSDAAKAEEDVYKTGDSVLISIPEQSIAGHVAFGEGKLAYITGGKHVGEFAKIVEVENRALYSDIVTLENKDGEKFKTVKPYVFIVGQDEPVISMLEHHHHHH”, “not failed”; in that of “MAIKNAFYAQSGGVTAVINASACGVIQTARKHPDQIGKVYAGRNGIIGALKEELIDTSLESDDAIQALIHTPGGAFGSCRYKLKNISENQREYERLIEVFRAHDIGYFFYNGGGDSQDTAYKVSQLADRMGYPITCIGVPKTVDNDLPFTDCCPGFGSVAKYIATSTLEASLDIKSMCETSTKVFILEVMGRHAGWIAAAGGLAGQSEGEPPHVILFPEIPFNREKFLERVDQCVRDYGYCVVVASEGAQYEDGRFVADAGAKDAFGHTQLGGVAPALANMVKQALGHKYHWAVADYLQRAARHIASATDVEQAYAVGKAAVEMALAGKQALMPTIVRDQAKPYRWSIGEANLSEVANQEKKMPIHYITDNGFGITQDCRDYLQPLIAGESFPPFDDGLPRVAKLKNQLVEKKLRTEFELLEHHHHHH”, “failed”.
Consider “MAINPNPRSVVAVRATVPEDAFTAGALGTLREGSGVVIRNDGLVLTIGYLITEAEEVWLTAYDGRVIPAHALAYDQESGFGLVQALAPTGLPAVALGDAGKARIGDAVVLADGIGRAVEAKIVTKQEFAGYWEYLLDEAIFIAPAHPSWGGAPLFGADGALLGIGSLRLQMSRAGEVADINMVVPIDLLPPILDDLLTRGQVAKPPRPWLGALSAESDGKVVVMSVTEGGPAAKAGLRQGDVISEVRDGAVDGLADFYRKLWDSGSAGAEIPMRVVRDGRETWLRVKSADRGSFLKKPQLQ”, for which the protein production entry is given as “failed”.
